Data published in publication PMC3542282, “P. falciparum cpn20 Is a Bona Fide Co-Chaperonin That Can Replace GroES in E. coli” (PLoS ONE, 2013).

How the values were obtained:
GroEL [1] = target: T1, GroEL (E. coli, UniProt P0A6F5 1-548)
[2] = target: P. falciparum cpn20 (P. falciparum); assay: AUC; sedimentation equilibrium, 12,000 rpm, 20°C, 20 mM Tris-HCl pH 7.4, 200 mM NaCl, read at 280 nm after 10, 12 and 14 hrs; with sedimentation velocity at 35,000 rpm, 0.5 mg/ml
GroEL (E. coli) = GroEL (E. coli) (UniProt P0A6F5)
GroEL [3] = target: T1, GroEL; assay: cell-based or functional assay
[4] = target: the molecule itself; assay: AUC; sedimentation equilibrium, 12,000 rpm, 20°C, 20 mM Tris-HCl pH 7.4, 200 mM NaCl, read at 280 nm after 10, 12 and 14 hrs; with sedimentation velocity at 35,000 rpm, 0.5 mg/ml

“GroES (from UniProt P0A6F9 1-97) (natural protein)” was tested, and the protomer ratio of co-chaperonin to GroEL required for half maximal refolding yield of urea-denatured MDH (10 µM GroEL, 0.16 to 20 µM co-chaperonin, 30 minutes) (co-chaperonin to GroEL protomer ratio) (GroEL [1]) was 0.125.

P. falciparum cpn20 (natural protein) showed a stoichiometry N (subunits in the oligomer) [2] of 4 and a protomer ratio of co-chaperonin to GroEL required for half maximal refolding yield of urea-denatured MDH (10 µM GroEL, 0.16 to 20 µM co-chaperonin, 30 minutes) (co-chaperonin to GroEL protomer ratio) (GroEL (E. coli)) of 0.125.

B1: A. thaliana cpn20 (natural protein, UniProt O65282 51-253, looked up)
chain: AASVVAPKYTSIKPLGDRVLVKIKEAEEKTLGGILLPSTAQSKPQGGEVVAVGEGRTIGKNKIDITVPTGAQIIYSKYAGTEVEFNDVKHLILKEDDIVGILETEDIKDLKPLNDRVFIKVAEAEEKTAGGLLLTETTKEKPSIGTVIAVGPGSLDEEGKITPLPVSTGSTVLYSKYAGNDFKGKDGSNYIALRASDVMAILS
notes: cpn20 (20 kDa double-domain co-chaperonin of the chloroplast) from A. thaliana, At5g20720; probably the mature protein without the transit peptide (predicted tetramer 90 kDa); also called At-cpn20; At-Cpn20; source: bacterial expression, purified as previously described [23]
B1 was tested, and the “protomer ratio of co-chaperonin to GroEL required for half maximal refolding yield of urea-denatured MDH (10 µM GroEL, 0.16 to 20 µM co-chaperonin, 30 minutes)” value (GroEL [3]) was ~0.125 co-chaperonin to GroEL protomer ratio and the “stoichiometry N” value [4] was 4 subunits in the oligomer.
